This test concerns the target H-2Db class I MHC molecule on the surface of RMA-S cells (mouse (endogenous in RMA-S)).

In turn, influenza NP (365-380) peptide displayed a fold increase in H-2Db reactivity (mAb 28.14.8) after peptide treatment of 2 fold.
